The source of these data is patent EP2545075B1 (NovelMed Therapeutics, Inc., dated 2020).

Residue numbers refer to the chain shown, from its start.

For experiment [1], the target named is T1, human properdin (human, UniProt P27918 28-469). Put plainly: cell-based or functional assay.
Experiment [2] has as its target T1, human properdin. Put plainly: Competition ELISA: properdin (50 nM) plus antibody on C3b-coated wells.
The target in experiment [3] is T1, human properdin. The experiment in a line: Properdin ELISA.
Experiment [4] deals with T1, human properdin. The experiment in a line: Properdin binding assay (Fig. 27).

T1 sequence (P27918 28-469 limits assumed): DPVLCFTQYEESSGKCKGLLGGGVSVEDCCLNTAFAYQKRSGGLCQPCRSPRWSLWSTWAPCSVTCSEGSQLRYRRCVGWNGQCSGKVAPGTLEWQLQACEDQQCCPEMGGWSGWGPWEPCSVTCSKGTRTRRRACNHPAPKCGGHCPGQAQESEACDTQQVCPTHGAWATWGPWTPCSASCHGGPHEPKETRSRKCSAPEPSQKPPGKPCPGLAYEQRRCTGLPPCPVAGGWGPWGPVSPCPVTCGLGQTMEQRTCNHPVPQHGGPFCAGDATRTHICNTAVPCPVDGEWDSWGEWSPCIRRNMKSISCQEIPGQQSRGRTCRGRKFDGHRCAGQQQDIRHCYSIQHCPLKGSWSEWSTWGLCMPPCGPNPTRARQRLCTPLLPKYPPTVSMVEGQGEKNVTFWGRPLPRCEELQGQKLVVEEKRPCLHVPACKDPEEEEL

B1: NM9401-IgG (antibody, V domains shown)
VH: QVQLQQSAPELARPGASVKMSCTASGYIFTNYPIHWVKQRPGQGLEWIGFIDPGGGYDEPDERFRDRATLTADKSSSTAYMQLSSLTSEDSAIYYCARRGGGYYLDYWGQGTTLTVSS
VL: DIQMTQTTSSLSASLGDRVTISCRASQDISFFLNWYQQKPDGTVKLLIYYTSRYHSGVPSRFSGSGSGTDFSLTINNLEQEDFATYFCQHGNTLPWTFGGGTKLEIK
modifications: Biotinylated in Example 5 (site not stated).
Consider B1, for which the “IC50 of inhibition in erythrocyte lysis assay using rabbit erythrocytes” value with human properdin [1] lay within 20 to 30 nM.

B2: NM9401-F(ab')2 (other)
VH: B1 VH
VL: B1 VL
modifications: F(ab')2 has two identical arms joined by hinge disulfides. The letters give one arm's variable domains.
notes: F(ab')2 fragment of the murine antibody NM9401; also called anti-properdin F(ab')2
On to B2, for which, in the experiment with human properdin [2], the 50% inhibitory concentration (IC50) was found to be 29 nM and the “molar ratio of antibody to properdin” value is 0.5.

B3: NM9401-Fab (Fab, V domains shown)
VH: B1 VH
VL: B1 VL
notes: Fab fragment of the murine antibody NM9401; also called anti-properdin Fab
Consider B3, for which, in the experiment with human properdin [2], the IC50 came out at 72 nM and the “molar ratio of antibody to properdin” value turned out to be 1.2.

B4: BAP010_1 (antibody, IgG1, V domains shown)
VH: B1 VH
VL: B1 VL
notes: Chimeric full-length IgG1/kappa carrying the variable domains of NM9401, expressed in CHO-S cells; also called chimeric anti-properdin monoclonal antibody; recombinant antibody BAP010_1
For B4, in the experiment with human properdin [1], the “IC50 of inhibition in erythrocyte lysis assay using rabbit erythrocytes” value lay within 20 to 30 nM. Moreover, the Kd with human properdin [3] is ~0.054 nM.

B5: BAP010hum02 (antibody, human IgG1, V domains shown)
VH: QVQLQESGPGLVKPSQTLSLTCTVSGYIFTNYPIHWVRQAPGKGLEWVSFIDPGGGYDEPDERFRDRVTISVDTSKNQFSLKLSSVTAADTAVYYCARRGGGYYLDYWGQG
VL: EIVLTQSPATLSLSPGERATLSCRASQDISFFLNWFQQRPGQSPRRLIYYTSRYHSGIPPRFSGSGYGTDFTLTINNIESEDAAYYFCQHGNTLPWTFGQG
notes: Humanized clone; The variable domains were cloned into the mammalian expression vector used for human IgG1/kappa; also called BAP010hum02_HC
With B5, in the experiment with human properdin [4], the binding result is reported as “binds”.

B6: BAP010hum03 (antibody, human IgG1, V domains shown)
VH: EVQLVQSGAEVKKPGESLRISCKGSGYIFTNYPIHWIRQSPSRGLEWLGFIDPGGGYDEPDERFRDRVTISADKSISTAYLQWSSLKASDTAMYYCARRGGGYYLDYWGQG
VL: DIQMTQSPSSLSASVGDRVTITCRASQDISFFLNWYQQKPGKAPKLLIYYTSRYHSGVPSRFSGSGSGTEFTLTISSLQSEDFAVYYCQHGNTLPWTFGQG
notes: Humanized clone; The variable domains were cloned into the mammalian expression vector used for human IgG1/kappa; also called BAP010hum03_HC
B6: the binding result with human properdin [4] is on record as “binds”.

B7: BAP010hum10 (antibody, human IgG1, V domains shown)
VH: QVQLQESGPGLVKPSQTLSLTCTVSGYIFTNYPIHWVRQATGQGLEWMGFIDPGGGYDEPDERFRDRVTITADKSTSTAYMELSSLRSEDTAVYYCARRGGGYYLDYWGQG
VL: B6 VL with V58I, S60P, S67Y, L73F, Q79E, S80A, F83A, V85T
notes: Humanized clone; The variable domains were cloned into the mammalian expression vector used for human IgG1/kappa; also called BAP010hum10_HC
In the case of B7, the binding result with human properdin [4] is “binds”.
